This is an account of results in PMC4938799, “LD Motif Recognition by Talin: Structure of the Talin-DLC1 Complex” (Structure(London, England:1993), 2016).

The subject of the test is A549 human non-small cell lung cancer line. As to the kind of experiment: G418 (monolayer) colony growth assay. The test is classed as cell-based. Particulars: transfected A549, G418 for 3 weeks; mean over three experiments. From the text: Figure 6 Talin R8 Mutations Disrupt the Interaction with DLC1 and Affect Its Biological Activity (A) Wild-type GST-talin fragments pull down more DLC1 than the 2E mutants. Extracts of HEK293T cells transfected with GFP-DLC1 and GST-talin constructs were subjected to pull-down assays with glutathione beads followed by immunoblotting with anti-GST and anti-DLC1 on the same membrane (top). The transfected GFP-DLC1 in each sample is shown by the anti-DLC1 blot (bottom) as a loading control. (B) Wild-type GST-talin fragments compete efficiently with endogenous talin to form a complex with DLC1. The supernatants collected after pull-down assay from (A) were reused for co-immunoprecipitation with an anti-talin antibody and blotted with anti-DLC1 (top). A small aliquot from each lane was blotted for endogenous talin as a loading control (bottom). (C) Co-expression of GST or GST-talin fragments (wild-type or 2E mutant) with GFP DLC1 in A549 cells. […] Transfected A549 cells were cultured in G418 for 3 weeks, and colonies counted and quantitated (top). […] Transfected A549 cells were grown for 3 weeks in soft agar, and colonies counted and quantitated (top). […] Lysates from migrated cells were quantitated (top), and representative microscopic images of the migrated cells are shown (bottom). […]

B1: GST-R8: GST-tagged talin R8, amino acids 1,453–1,580 (protein)
chain: NSQAGQQGLVEPTQFARANQAIQMACQSLGEPGCTQAQVLSAATIVAKHTSALCNSCRLASARTANPTAKRQFVQSAKEVANSTANLVKTIKALDGDFTEENRAQCRAATAPLLEAVDNLSAFASNPE
modifications: left off: GST, end not stated, kept
On to B1, for which the colony growth result is “no detectable biological activity”.
